Assay results as given in US20230357354A1, “CD38-BINDING CD31 PEPTIDES AND USES THEREOF” (ENCEFA, priority 2020, published 2023).

Molecular target: recombinant His-tagged CD38 (Homo sapiens, UniProt P28907)
Assay: Pepscan-based ELISA of His-tagged CD38 on CD31 peptide arrays
Assay type: binding
Details: mimic type BET (β-turn mimic, mP2 CLIPS); sample with the highest signal
Text: Different sets of sCD31 peptides were synthesized according to the following designs. Note that actual order of peptides on mini-cards in some was randomized. • Set #1 • Mimic type: linear • Label: LIN15 • Linear peptides of 15 consecutive amino acid residues in length, derived from the target sequence of sCD31 with an offset of […]. • Set #2 • Mimic type: single loop (mP2 CLIPS) • Label: LOOP7 • Constrained peptides of 9 amino acid residues in length. On positions 2-8 are incorporated 7 consecutive amino acid residues derived from the target sequence of sCD31 with an offset of 1.3 residues. Cys residues were inserted on positions 1 and 9 and joined by mP2 CLIPS in order to create a loop mimic. Native Cys residues, if present, were replaced by Ser residues. • Set #3 • Mimic type: single loop, (mP2 CLIPS) • Label: LOOP15 • Constrained peptides of 17 amino acid residues in length. On positions 2-16 are incorporated 15 consecutive amino acid residues derived from the target sequence of sCD31 with an offset of […]. Cys residues were inserted on positions 1 and 17 and joined by mP2 CLIPS in order to create a loop mimic. Native Cys residues, if present, were replaced by Ser residues. • Set #4 • Mimic type: β-turn peptide mimics (mP2 CLIPS) • Label: BET • β-turn peptide mimics of 22 amino acid residues in length. On positions 2-21 are incorporated 20 consecutive amino acid residues derived from the target sequence of sCD31 with an offset of 1.3 residues. Residues on positions 11 and 12 are replaced by a Pro-Gly motif in order to induce the β-turn formation. Cys residues were inserted on positions 1 and 22 and joined by mP2 CLIPS in order to stabilize the mimic. Native Cys residues, if present, were replaced by Ser residues.
To reconstruct epitopes of sCD31, a library of peptide-based peptide mimics was synthesized using Fmoc-based solid-phase peptide synthesis. An amino functionalized polypropylene support was obtained by grafting with a hydrophilic polymer formulation, followed by reaction with t-butyloxycarbonyl-hexamethylenediamine (BocHMDA) using dicyclohexylcarbodiimide (DCC) with N-hydroxybenzotriazole (HOBt) and subsequent cleavage of the Boc-groups using trifluoroacetic acid (TFA).
Standard Fmoc-peptide synthesis was used to synthesize peptides on the amino-functionalized solid support by custom modified JANUS liquid handling stations (Perkin Elmer).
Synthesis of structural mimics was done using CLIPS technology. CLIPS technology allows to structure peptides into single loops, double loops, triple loops, sheet-like folds, helix-like folds, and combinations thereof. CLIPS templates are coupled to cysteine residues. The side-chains of multiple cysteines in the peptides are coupled to one or two CLIPS templates. For example, a 0.5 mM solution of the P2 CLIPS (2,6-bis(bromomethyl)pyridine) is dissolved in ammonium bicarbonate (20 mM, pH 7.8)/acetonitrile (1:3, v/v). This solution is added onto the peptide arrays. The CLIPS template binds to side-chains of two cysteines as present in the solid-phase bound peptides of the peptide-arrays (455 wells plate with 3-µL wells). The peptide arrays are gently shaken in the solution for 30 to 60 minutes while completely covered in solution.
Finally, the peptide arrays are washed extensively with excess of H2O and sonicated in disrupt-buffer containing 1% SDS / 0.1 % 2,2′-(ethylenedioxy)diethanethiol in PBS (pH 7.2) at 70° C. for 30 minutes, followed by sonication in H2O for another 45 minutes.
The binding of the sample (recombinant His-tagged CD38; 9 µg/mL and 20 µg/mL) to each of the synthesized peptides was tested in a pepscan-based ELISA. The peptide arrays were incubated with primary sample solution (overnight at 4° C.). […]

Which “Value (binding intensity of His-tagged CD38), BET conformational peptide array” value (“Value … BET conformational peptide array” below) does the source give for “265 (CTTSHVKPQHPGLFYKDDVLFC) [compound 265]” here?
Its value is 679 mAU.

Which “Value … BET conformational peptide array” value does the source give for “266 (CTSHVKPQHQPGFYKDDVLFYC) [compound 266]” here?
The value was 725 mAU.

For “267 (CSHVKPQHQMPGYKDDVLFYNC) [compound 267]”, which “Value … BET conformational peptide array” value is on record?
Its value is 662 mAU.

Which “Value … BET conformational peptide array” value does the source give for “268 (CVKPQHQMLFPGDDVLFYNISC) [compound 268]” here?
The value was 792 mAU.

“269 (CKPQHQMLFYPGDVLFYNISSC) [compound 269]” was tested. Which “Value … BET conformational peptide array” value did it give?
The value was 641 mAU.

Which “Value … BET conformational peptide array” value does the source give for “270 (CYKDDVLFYNPGSMKSTESYFC) [compound 270]” here?
The value was 378 mAU.

Same assay, conditions: mimic type LOOP7 (single loop, mP2 CLIPS); sample with the highest signal

For 206 (CVNITELFC) [compound 206], which “Value (binding intensity of His-tagged CD38), LOOP7 conformational peptide array” value (shortened to “Value … LOOP7 conformational peptide array”) is on record?
The value was 625 mAU.

How did the “Value … LOOP7 conformational peptide array” value turn out when 207 (CNITELFSC) [compound 207] was run?
Its value is 512 mAU.

Which “Value … LOOP7 conformational peptide array” value does the source give for 208 (CRISYDAQC) [compound 208] here?
Its value is 287 mAU.

For 209 (CSYDAQFEC) [compound 209], which “Value … LOOP7 conformational peptide array” value is on record?
Its value is 570 mAU.

For 210 (CYDAQFEVC) [compound 210], which “Value … LOOP7 conformational peptide array” value is on record?
The value was 628 mAU.

How did the “Value … LOOP7 conformational peptide array” value turn out when 211 (CDAQFEVIC) [compound 211] was run?
The value was 429 mAU.

For 212 (CNPTEDVEC) [compound 212], which “Value … LOOP7 conformational peptide array” value is on record?
The value was 402 mAU.

With 213 (CPTEDVEYC) [compound 213] as the substance, how does the “Value … LOOP7 conformational peptide array” value read?
The value was 407 mAU.

Which “Value … LOOP7 conformational peptide array” value does the source give for 214 (CDVEYQSVC) [compound 214] here?
Its value is 556 mAU.

How did the “Value … LOOP7 conformational peptide array” value turn out when 215 (CDEVQISIC) [compound 215] was run?
The value was 378 mAU.

216 (CEVQISILC) [compound 216] was tested. Which “Value … LOOP7 conformational peptide array” value did it give?
Its value is 529 mAU.

Which “Value … LOOP7 conformational peptide array” value does the source give for 217 (CVQISILSC) [compound 217] here?
The value was 416 mAU.

For 218 (CESGEDIVC) [compound 218], which “Value … LOOP7 conformational peptide array” value is on record?
The value was 420 mAU.

219 (CSGEDIVLC) [compound 219] was tested. Which “Value … LOOP7 conformational peptide array” value did it give?
Its value is 573 mAU.

Which “Value … LOOP7 conformational peptide array” value does the source give for 220 (CGEDIVLQC) [compound 220] here?
Its value is 442 mAU.

For 221 (CDIVLQSAC) [compound 221], which “Value … LOOP7 conformational peptide array” value is on record?
Its value is 389 mAU.

How did the “Value … LOOP7 conformational peptide array” value turn out when 222 (CKEQEGEYC) [compound 222] was run?
Its value is 385 mAU.

Which “Value … LOOP7 conformational peptide array” value does the source give for 223 (CQEGEYYSC) [compound 223] here?
Its value is 619 mAU.

For 224 (CEGEYYSTC) [compound 224], which “Value … LOOP7 conformational peptide array” value is on record?
The value was 650 mAU.

How did the “Value … LOOP7 conformational peptide array” value turn out when 225 (CGEYYSTAC) [compound 225] was run?
Its value is 552 mAU.

For 226 (CYYSTAFNC) [compound 226], which “Value … LOOP7 conformational peptide array” value is on record?
The value was 477 mAU.

Same assay, conditions: mimic type LOOP15 (single loop, mP2 CLIPS); sample with the highest signal

How did the “Value (binding intensity of His-tagged CD38), LOOP15 conformational peptide array” value (from here on “Value … LOOP15 conformational peptide array”) turn out when 227 (CHVKPQHQMLFYKDDVC) [compound 227] was run?
The value was 431 mAU.

Which “Value … LOOP15 conformational peptide array” value does the source give for 228 (CVKPQHQMLFYKDDVLC) [compound 228] here?
Its value is 411 mAU.

For 229 (CKPQHQMLFYKDDVLFC) [compound 229], which “Value … LOOP15 conformational peptide array” value is on record?
Its value is 467 mAU.

How did the “Value … LOOP15 conformational peptide array” value turn out when 230 (CQHQMLFYKDDVLFYNC) [compound 230] was run?
Its value is 600 mAU.

With 231 (CHQMLFYKDDVLFYNIC) [compound 231] as the substance, how does the “Value … LOOP15 conformational peptide array” value read?
The value was 564 mAU.

How did the “Value … LOOP15 conformational peptide array” value turn out when 232 (CQMLFYKDDVLFYNISC) [compound 232] was run?
The value was 646 mAU.

With 233 (CMLFYKDDVLFYNISSC) [compound 233] as the substance, how does the “Value … LOOP15 conformational peptide array” value read?
The value was 630 mAU.

Which “Value … LOOP15 conformational peptide array” value does the source give for 234 (CLFYKDDVLFYNISSMC) [compound 234] here?
The value was 497 mAU.

With 235 (CVLFYNISSMKSTESYC) [compound 235] as the substance, how does the “Value … LOOP15 conformational peptide array” value read?
The value was 371 mAU.

Which “Value … LOOP15 conformational peptide array” value does the source give for 236 (CFYNISSMKSTESYFIC) [compound 236] here?
Its value is 552 mAU.

For 237 (CYNISSMKSTESYFIPC) [compound 237], which “Value … LOOP15 conformational peptide array” value is on record?
Its value is 370 mAU.

For 238 (CNISSMKSTESYFIPEC) [compound 238], which “Value … LOOP15 conformational peptide array” value is on record?
Its value is 478 mAU.

For 239 (CISSMKSTESYFIPEVC) [compound 239], which “Value … LOOP15 conformational peptide array” value is on record?
Its value is 499 mAU.

240 (CSSMKSTESYFIPEVRC) [compound 240] was tested. Which “Value … LOOP15 conformational peptide array” value did it give?
Its value is 343 mAU.

With 241 (CMKSTESYFIPEVRIYC) [compound 241] as the substance, how does the “Value … LOOP15 conformational peptide array” value read?
The value was 325 mAU.

How did the “Value … LOOP15 conformational peptide array” value turn out when 242 (CKSTESYFIPEVRIYDC) [compound 242] was run?
The value was 528 mAU.

With 243 (CSTESYFIPEVRIYDSC) [compound 243] as the substance, how does the “Value … LOOP15 conformational peptide array” value read?
The value was 660 mAU.

How did the “Value … LOOP15 conformational peptide array” value turn out when 244 (CTESYFIPEVRIYDSGC) [compound 244] was run?
The value was 465 mAU.

With 245 (CESYFIPEVRIYDSGTC) [compound 245] as the substance, how does the “Value … LOOP15 conformational peptide array” value read?
Its value is 373 mAU.

Which “Value … LOOP15 conformational peptide array” value does the source give for 246 (CYFIPEVRIYDSGTYKC) [compound 246] here?
The value was 416 mAU.

For 247 (CKREKNSRDQNFVILEC) [compound 247], which “Value … LOOP15 conformational peptide array” value is on record?
The value was 516 mAU.

For 248 (CREKNSRDQNFVILEFC) [compound 248], which “Value … LOOP15 conformational peptide array” value is on record?
The value was 1073 mAU.

Which “Value … LOOP15 conformational peptide array” value does the source give for 249 (CEKNSRDQNFVILEFPC) [compound 249] here?
Its value is 566 mAU.

Which “Value … LOOP15 conformational peptide array” value does the source give for 250 (CKNSRDQNFVILEFPVC) [compound 250] here?
The value was 624 mAU.

251 (CDQNFVILEFPVEEQDC) [compound 251] was tested. Which “Value … LOOP15 conformational peptide array” value did it give?
Its value is 634 mAU.

How did the “Value … LOOP15 conformational peptide array” value turn out when 252 (CQNFVILEFPVEEQDRC) [compound 252] was run?
Its value is 729 mAU.

How did the “Value … LOOP15 conformational peptide array” value turn out when 253 (CNFVILEFPVEEQDRVC) [compound 253] was run?
The value was 524 mAU.

For 254 (CFVILEFPVEEQDRVLC) [compound 254], which “Value … LOOP15 conformational peptide array” value is on record?
The value was 550 mAU.

With 255 (CSTIQVTHLAQEFPEIC) [compound 255] as the substance, how does the “Value … LOOP15 conformational peptide array” value read?
Its value is 320 mAU.

Which “Value … LOOP15 conformational peptide array” value does the source give for 256 (CTIQVTHLAQEFPEIIC) [compound 256] here?
Its value is 504 mAU.

For 257 (CIQVTHLAQEFPEIIIC) [compound 257], which “Value … LOOP15 conformational peptide array” value is on record?
The value was 797 mAU.

How did the “Value … LOOP15 conformational peptide array” value turn out when 258 (CQVTHLAQEFPEIIIQC) [compound 258] was run?
Its value is 617 mAU.

For 259 (CVTHLAQEFPEIIIQKC) [compound 259], which “Value … LOOP15 conformational peptide array” value is on record?
The value was 343 mAU.

How did the “Value … LOOP15 conformational peptide array” value turn out when 260 (CSSRISKVSSIVVNITC) [compound 260] was run?
Its value is 287 mAU.

For 261 (CRISKVSSIVVNITELC) [compound 261], which “Value … LOOP15 conformational peptide array” value is on record?
Its value is 567 mAU.

How did the “Value … LOOP15 conformational peptide array” value turn out when 262 (CISKVSSIVVNITELFC) [compound 262] was run?
Its value is 795 mAU.

With 263 (CSKVSSIVVNITELFSC) [compound 263] as the substance, how does the “Value … LOOP15 conformational peptide array” value read?
Its value is 593 mAU.

264 (CKVSSIVVNITELFSKC) [compound 264] was tested. Which “Value … LOOP15 conformational peptide array” value did it give?
Its value is 211 mAU.
